One experiment has as its target casein hydrolysate. In words: cell-based or functional assay.
The next experiment addresses sodium caseinate. In words: cell-based or functional assay.

In the experiment with casein hydrolysate, “peptidyl arginine deiminase (PAD) of Fusarium graminearum CBS166.57, over-expressed in Aspergillus niger and purified (enzyme)” had an arginine (amino acid analysis, 5 microliter PAD, 3 hours) of 97.2%; an arginine (amino acid analysis, 50 microliter PAD, 3 hours) of 86.1%; an arginine (amino acid analysis, 500 microliter PAD, 3 hours) of 60.4%; a citrulline (amino acid analysis, 5 microliter PAD, 3 hours) of 0.9%. In the experiment with casein hydrolysate, this substance gave a citrulline (amino acid analysis, 50 microliter PAD, 3 hours) of 5%; a citrulline (amino acid analysis, 500 microliter PAD, 3 hours) of 15.1%; an ornithine (amino acid analysis, 5 microliter PAD, 3 hours) of 1.9%; an ornithine (amino acid analysis, 50 microliter PAD, 3 hours) of 8.9%. For the same substance, in the experiment with casein hydrolysate, the ornithine (amino acid analysis, 500 microliter PAD, 3 hours) came out at 24.5%. In the experiment with sodium caseinate, the arginine (amino acid analysis, 5 microliter PAD, 3 hours) came out at 97.8%; the arginine (amino acid analysis, 50 microliter PAD, 3 hours) was 86.5%; the arginine (amino acid analysis, 500 microliter PAD, 3 hours) was 70.2%; the citrulline (amino acid analysis, 5 microliter PAD, 3 hours) was 0.8%. In the experiment with sodium caseinate, the citrulline (amino acid analysis, 50 microliter PAD, 3 hours) worked out at 4.7%; the citrulline (amino acid analysis, 500 microliter PAD, 3 hours) worked out at 10.5%; the ornithine (amino acid analysis, 5 microliter PAD, 3 hours) worked out at 1.3%; the ornithine (amino acid analysis, 50 microliter PAD, 3 hours) was 8.8%. In addition, the ornithine (amino acid analysis, 500 microliter PAD, 3 hours) with sodium caseinate was 19.3%.

These data come from US20090297689A1.
